Test results from patent publication US20130236459A1 (MERRIMACK PHARMACEUTICALS, published 2013).
Where two headings read alike, the source gives them in different places. One block for each binder: values may come before it.

Assays:
[1] = target: T1, IGF-1R (receptor for insulin-like growth factor 1), endogenous on human tumor cell lines (human, UniProt P08069 31-1367); assay: cell-based or functional assay
[2] = target: T2, ErbB3 (HER3), endogenous on human tumor cell lines (human, UniProt P21860 20-1342); assay: cell-based or functional assay
[3] = target: T1, IGF-1R (receptor for insulin-like …); assay: cell-based or functional assay; remark: listed apart in the source
[4] = target: T2, ErbB3 (HER3), endogenous on human tumor …; assay: cell-based or functional assay; remark: listed apart in the source
[5] = target: T1, IGF-1R (receptor for insulin-like …); assay: cell-based or functional assay; remark: listed apart in the source
[6] = target: T2, ErbB3 (HER3), endogenous on human tumor …; assay: cell-based or functional assay; remark: listed apart in the source
[7] = target: T1, IGF-1R (receptor for insulin-like …); assay: cell-based or functional assay; remark: listed apart in the source
mouse ErbB3-His = target: T3, mouse ErbB3-His (mouse, UniProt Q61526 20-641, limits assumed); assay: ELISA, species specific ErbB3-His coated plate
T3 construct: not shown: His tag, not further described for this species form
Protocol: (§1) 96-well Reacti-bind® plates (Pierce, Fisher cat. No. PI-I5041) are coated with 50 ul of species specific ErbB3-His or IGF-1R-His (R&D Systems, cat. No. 348-RB and 305-GR, respectively) at 2 ug/ml in PBS and incubated overnight at 4° C. The next day plates are washed with PBS+0.05% Tween-20 (PBS-T) and blocked for 1 hr. at room temperature with 100 ul of Protein-Free Blocking Buffer (Pierce). Plates are washed with PBS-T and 50 ul of each PBA is added in duplicate. Concentrations start at 500 nM (in PBS-T) and included ten additional two-fold dilutions and one blank (PBS-T only). Plates are incubated at room temperature for two hours and then washed with PBS-T. 50 ul of anti-Fc-HRP (Jackson Labs) is added at 1:40,000 in PBS-T, and plates are incubated in the dark for 1 hr. at room temperature. Plates are again washed with PBS-T and 100 ul of TMB substrate (Thermo Scientific, TMB and peroxide solution mixed 1:1) is added. The plates are incubated for 5-15 minutes at room temperature until a blue color develops, and the reaction is stopped with 100 ul of STOP solution (Cell Signaling Technology). The absorbance is read at 450 nm on a PerkinElmer Envision plate reader, and binding curves are generated using GraphPad Prism.

rat ErbB3-His = target: T4, rat ErbB3-His (rat, UniProt Q62799 20-641, limits assumed); assay: ELISA, species specific ErbB3-His coated plate
T4 construct: not shown: His tag, not further described for this species form
Protocol: as §1

mouse IGF-1R-His = target: T5, mouse IGF-1R-His (mouse, UniProt Q60751 31-936, limits assumed); assay: ELISA, species specific IGF-1R-His coated plate
T5 construct: not shown: His tag, not further described
Protocol: as §1

[8] = target: T2, ErbB3 (HER3), endogenous on human tumor …; assay: cell-based or functional assay; remark: listed apart in the source
[9] = target: T2, ErbB3 (HER3), endogenous on human tumor …; assay: cell-based or functional assay; remark: listed apart in the source
[10] = target: T2, ErbB3 (HER3), endogenous on human tumor …; assay: cell-based or functional assay; remark: listed apart in the source
[11] = target: T1, IGF-1R (receptor for insulin-like …); assay: cell-based or functional assay; remark: listed apart in the source

T1 sequence (P08069 31-1367): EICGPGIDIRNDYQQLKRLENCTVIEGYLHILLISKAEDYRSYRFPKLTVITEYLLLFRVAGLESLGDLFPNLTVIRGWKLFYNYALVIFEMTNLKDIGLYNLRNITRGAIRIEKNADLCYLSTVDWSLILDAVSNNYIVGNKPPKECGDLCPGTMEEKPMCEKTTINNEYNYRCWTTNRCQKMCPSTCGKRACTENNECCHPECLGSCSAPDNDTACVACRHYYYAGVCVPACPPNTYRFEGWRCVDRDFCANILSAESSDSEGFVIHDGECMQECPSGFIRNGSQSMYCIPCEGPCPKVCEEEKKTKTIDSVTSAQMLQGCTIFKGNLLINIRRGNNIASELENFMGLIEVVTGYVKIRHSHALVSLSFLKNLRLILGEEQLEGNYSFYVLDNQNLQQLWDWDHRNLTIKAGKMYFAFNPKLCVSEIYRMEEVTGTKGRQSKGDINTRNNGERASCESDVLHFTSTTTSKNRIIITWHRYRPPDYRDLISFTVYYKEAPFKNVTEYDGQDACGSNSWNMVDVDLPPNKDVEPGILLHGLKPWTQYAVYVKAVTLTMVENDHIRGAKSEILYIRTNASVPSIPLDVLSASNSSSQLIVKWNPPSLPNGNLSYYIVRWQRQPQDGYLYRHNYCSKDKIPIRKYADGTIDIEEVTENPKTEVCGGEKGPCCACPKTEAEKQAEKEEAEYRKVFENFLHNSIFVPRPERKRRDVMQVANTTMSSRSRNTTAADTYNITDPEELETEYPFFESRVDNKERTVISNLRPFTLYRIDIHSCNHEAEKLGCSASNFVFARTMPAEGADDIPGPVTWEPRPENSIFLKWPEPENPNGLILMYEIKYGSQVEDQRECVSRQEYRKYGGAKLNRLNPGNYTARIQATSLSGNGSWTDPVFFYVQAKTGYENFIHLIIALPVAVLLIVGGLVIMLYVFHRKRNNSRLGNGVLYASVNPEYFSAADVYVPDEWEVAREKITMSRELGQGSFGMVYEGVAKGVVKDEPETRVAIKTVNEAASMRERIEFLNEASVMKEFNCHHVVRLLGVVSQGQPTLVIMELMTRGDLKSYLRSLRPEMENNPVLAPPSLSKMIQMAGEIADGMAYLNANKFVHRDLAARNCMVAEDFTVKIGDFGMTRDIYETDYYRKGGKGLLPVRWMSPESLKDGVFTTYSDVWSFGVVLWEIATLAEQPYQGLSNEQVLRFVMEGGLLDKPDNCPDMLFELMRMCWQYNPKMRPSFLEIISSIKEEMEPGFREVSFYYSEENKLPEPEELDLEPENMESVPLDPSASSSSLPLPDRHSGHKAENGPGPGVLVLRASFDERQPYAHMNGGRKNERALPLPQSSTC
T2 sequence (P21860 20-1342 limits assumed): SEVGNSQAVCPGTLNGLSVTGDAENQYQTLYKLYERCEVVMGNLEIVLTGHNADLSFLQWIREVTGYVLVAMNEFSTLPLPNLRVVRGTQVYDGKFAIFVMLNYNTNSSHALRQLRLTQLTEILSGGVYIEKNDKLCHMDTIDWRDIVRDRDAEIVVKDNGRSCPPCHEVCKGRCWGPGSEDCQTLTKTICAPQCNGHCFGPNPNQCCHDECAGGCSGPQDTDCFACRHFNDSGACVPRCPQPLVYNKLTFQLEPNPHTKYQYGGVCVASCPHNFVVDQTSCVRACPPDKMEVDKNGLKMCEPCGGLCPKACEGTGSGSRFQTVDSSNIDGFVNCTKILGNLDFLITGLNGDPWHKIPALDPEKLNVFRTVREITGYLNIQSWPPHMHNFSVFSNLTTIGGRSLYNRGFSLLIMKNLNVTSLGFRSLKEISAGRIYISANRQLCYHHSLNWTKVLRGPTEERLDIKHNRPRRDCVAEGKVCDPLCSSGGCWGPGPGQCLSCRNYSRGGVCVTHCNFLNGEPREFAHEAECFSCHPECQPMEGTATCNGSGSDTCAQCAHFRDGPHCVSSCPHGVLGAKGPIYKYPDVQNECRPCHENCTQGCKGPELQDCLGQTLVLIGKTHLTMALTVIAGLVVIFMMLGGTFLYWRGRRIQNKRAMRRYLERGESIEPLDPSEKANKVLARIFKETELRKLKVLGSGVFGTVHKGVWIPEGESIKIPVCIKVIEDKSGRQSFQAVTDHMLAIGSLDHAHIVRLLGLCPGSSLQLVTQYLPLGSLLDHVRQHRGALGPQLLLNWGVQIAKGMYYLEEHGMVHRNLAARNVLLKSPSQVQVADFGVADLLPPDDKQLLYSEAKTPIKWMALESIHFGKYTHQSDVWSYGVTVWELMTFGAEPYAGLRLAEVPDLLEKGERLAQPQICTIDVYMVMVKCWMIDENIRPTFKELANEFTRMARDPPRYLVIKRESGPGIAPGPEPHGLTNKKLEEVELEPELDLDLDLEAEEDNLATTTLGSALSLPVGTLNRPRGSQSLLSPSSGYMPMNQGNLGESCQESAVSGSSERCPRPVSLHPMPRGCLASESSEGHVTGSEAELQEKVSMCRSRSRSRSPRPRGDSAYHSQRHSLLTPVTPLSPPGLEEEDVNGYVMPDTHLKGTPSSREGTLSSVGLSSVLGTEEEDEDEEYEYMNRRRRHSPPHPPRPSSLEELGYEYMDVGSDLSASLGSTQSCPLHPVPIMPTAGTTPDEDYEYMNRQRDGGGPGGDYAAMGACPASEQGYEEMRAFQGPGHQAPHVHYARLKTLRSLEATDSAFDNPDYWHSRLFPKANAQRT
T5 sequence (Q60751 31-936 limits assumed): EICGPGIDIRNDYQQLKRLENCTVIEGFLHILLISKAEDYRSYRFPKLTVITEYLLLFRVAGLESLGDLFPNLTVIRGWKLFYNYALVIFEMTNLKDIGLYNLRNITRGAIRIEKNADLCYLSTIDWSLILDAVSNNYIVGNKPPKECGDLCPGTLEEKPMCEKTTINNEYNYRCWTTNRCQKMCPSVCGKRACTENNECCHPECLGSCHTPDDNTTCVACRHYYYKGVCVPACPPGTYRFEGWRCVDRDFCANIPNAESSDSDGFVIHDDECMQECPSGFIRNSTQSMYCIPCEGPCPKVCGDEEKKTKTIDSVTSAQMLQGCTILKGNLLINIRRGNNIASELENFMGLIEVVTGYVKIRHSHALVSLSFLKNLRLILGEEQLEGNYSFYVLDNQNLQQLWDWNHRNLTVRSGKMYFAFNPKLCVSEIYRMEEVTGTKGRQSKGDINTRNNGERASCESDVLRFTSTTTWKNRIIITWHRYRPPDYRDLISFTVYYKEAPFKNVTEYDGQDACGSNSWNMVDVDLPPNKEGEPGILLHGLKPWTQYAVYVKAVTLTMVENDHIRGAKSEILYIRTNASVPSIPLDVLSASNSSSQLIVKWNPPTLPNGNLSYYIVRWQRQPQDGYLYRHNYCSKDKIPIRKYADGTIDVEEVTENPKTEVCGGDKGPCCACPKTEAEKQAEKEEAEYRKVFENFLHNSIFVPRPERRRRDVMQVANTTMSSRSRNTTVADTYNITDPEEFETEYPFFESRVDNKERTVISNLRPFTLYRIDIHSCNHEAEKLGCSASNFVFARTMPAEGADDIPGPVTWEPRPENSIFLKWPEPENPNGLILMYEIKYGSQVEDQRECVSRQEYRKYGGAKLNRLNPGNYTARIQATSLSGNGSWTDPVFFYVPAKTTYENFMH
T4 sequence (Q62799 20-641 limits assumed): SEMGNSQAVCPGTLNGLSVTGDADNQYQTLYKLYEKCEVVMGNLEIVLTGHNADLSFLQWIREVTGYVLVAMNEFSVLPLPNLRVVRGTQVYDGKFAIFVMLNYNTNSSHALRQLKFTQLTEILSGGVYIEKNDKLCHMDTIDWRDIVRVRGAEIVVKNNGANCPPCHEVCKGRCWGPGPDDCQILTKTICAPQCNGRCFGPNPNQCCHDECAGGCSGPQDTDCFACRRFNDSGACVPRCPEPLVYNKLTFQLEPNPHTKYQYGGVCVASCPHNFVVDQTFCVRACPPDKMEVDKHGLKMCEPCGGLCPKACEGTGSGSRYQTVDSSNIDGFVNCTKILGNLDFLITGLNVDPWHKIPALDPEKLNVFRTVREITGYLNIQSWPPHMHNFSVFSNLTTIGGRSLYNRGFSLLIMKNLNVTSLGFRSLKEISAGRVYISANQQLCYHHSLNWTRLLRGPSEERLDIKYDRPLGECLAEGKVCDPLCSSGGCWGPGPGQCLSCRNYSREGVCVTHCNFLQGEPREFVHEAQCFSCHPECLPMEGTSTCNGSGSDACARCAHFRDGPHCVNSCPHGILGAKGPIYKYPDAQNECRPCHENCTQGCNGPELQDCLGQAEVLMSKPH
T3 sequence (Q61526 20-641 limits assumed): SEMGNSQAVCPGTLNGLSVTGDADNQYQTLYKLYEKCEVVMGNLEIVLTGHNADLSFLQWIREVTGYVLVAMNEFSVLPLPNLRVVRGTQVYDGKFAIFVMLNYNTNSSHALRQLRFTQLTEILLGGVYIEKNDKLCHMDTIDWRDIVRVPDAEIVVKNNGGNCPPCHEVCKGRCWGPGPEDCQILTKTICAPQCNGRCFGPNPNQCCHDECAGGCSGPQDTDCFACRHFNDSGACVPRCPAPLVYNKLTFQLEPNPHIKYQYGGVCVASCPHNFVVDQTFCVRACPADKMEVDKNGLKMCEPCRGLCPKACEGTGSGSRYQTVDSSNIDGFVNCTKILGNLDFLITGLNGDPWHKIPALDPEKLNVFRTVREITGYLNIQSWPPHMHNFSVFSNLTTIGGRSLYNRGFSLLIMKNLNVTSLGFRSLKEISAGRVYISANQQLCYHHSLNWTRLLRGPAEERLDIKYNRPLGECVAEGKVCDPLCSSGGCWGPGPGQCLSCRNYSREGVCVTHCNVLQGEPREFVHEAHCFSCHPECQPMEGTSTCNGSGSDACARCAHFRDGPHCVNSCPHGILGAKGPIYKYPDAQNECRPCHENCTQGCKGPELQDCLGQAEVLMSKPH

- pIGF1R % Inhibition (BxPC-3) [1]: 88%
- pIGF1R IC50 (BxPC-3) [1]: 1.3e-09 M (inferred)
- pErbB3 % Inhibition (BxPC-3) [2]: 111%
- pErbB3 IC50 (BxPC-3) [2]: 2.6e-11 M (inferred)
- pIGF1R IC50 (BxPC-3) [3]: 1.3e-09 M (inferred)
- pErbB3 IC50 (BxPC-3) [4]: 2.6e-11 M (inferred)
- pAKT IC50 (BxPC-3, IGF1 40 ng/ml) [5]: 3.8e-10 M
- pAKT IC50 (BxPC-3, IGF1 400 ng/ml) [5]: 6.4e-10 M
- pIGF1R IC50 (BxPC-3, IGF1 40 ng/ml) [5]: 1e-09 M
- pIGF1R IC50 (BxPC-3, IGF1 400 ng/ml) [5]: 2.4e-09 M
- pAKT IC50 (BxPC-3, HRG 20 ng/ml) [6]: 7.12e-11 M
- pAKT IC50 (BxPC-3, HRG 200 ng/ml) [6]: 6.46e-11 M
- pErbB3 IC50 (BxPC-3, HRG 20 ng/ml) [6]: 6.16e-11 M
- pErbB3 IC50 (BxPC-3, HRG 200 ng/ml) [6]: 6.53e-11 M
- % IGF1R Downregulation (A549, 24 h) [7]: 48%
- % IGF1R Downregulation (BxPC-3, 24 h) [7]: 53%
- binding result (mouse ErbB3-His): binds
- binding result (rat ErbB3-His): binds
- binding result (mouse IGF-1R-His): binds
B1: M7-G1-M78 (bispecific antibody, human IgG1, lambda)
heavy: not shown
light: SSELTQDPAVSVALGQTVRITCQGDSLRSYYASWYQQKPGQAPVLVIYGKNNRPSGIPDRFSGSSSGNTASLTITGAQAEDEADYYCNSRDTPGNKWVFGGGTKVTVIGQPKAAPSVTLFPPSSEELQANKATLVCLVSDFYPGAVTVAWKADGSPVKVGVETTKPSKQSNNKYAASSYLSLTPEQWKSHRSYSCRVTHEGSTVEKTVAPAECS
notes: IgG1-(scFv)2: anti-ErbB3 Fab, anti-IGF-1R scFv; also called M7-M78; M7-78

- pAKT IC50 (BxPC-3) [8]: 3.9e-10 M (inferred)
- pAKT IC50 (DU145) [8]: 2.8e-10 M (inferred)
- pErbB3 IC50 (BxPC-3) [8]: 5.1e-11 M (inferred)
- pErbB3 IC50 (DU145) [8]: 8.2e-11 M (inferred)
- pAKT IC50 (BxPC-3) [9]: 5.7e-09 M (inferred)
- pErbB3 IC50 (BxPC-3) [9]: 4.3e-10 M (inferred)
- pAKT IC50 (BxPC-3) [4]: 3.5e-10 M (inferred)
- pErbB3 IC50 (BxPC-3) [4]: 9.2e-11 M (inferred)
- pAKT IC50 (BxPC-3 50% ErbB3 KD) [10]: 2.8e-10 M
- pAKT IC50 (BxPC-3 50% IGF1R KD) [10]: 1.6e-09 M
- pAKT IC50 (BxPC-3 Vector Control) [10]: 2.5e-09 M
- pAKT IC50 (BxPC-3, HRG 20 ng/ml) [6]: 3.06e-10 M
- pAKT IC50 (BxPC-3, HRG 200 ng/ml) [6]: 3.26e-10 M
- pErbB3 IC50 (BxPC-3, HRG 20 ng/ml) [6]: 2.41e-10 M
- pErbB3 IC50 (BxPC-3, HRG 200 ng/ml) [6]: 1.98e-10 M
B2: ANTI-ErbB3 Ab# A (antibody, V domains shown)
VH: QVQLQQWGAGLLKPSETLSLTCAVYGGSFSGYYWSWIRQPPGKGLEWIGEINHSGSTNYNPSLKSRVTISVETSKNQFSLKLSSVTAADTAVYYCARDKWTWYFDLWGRGTLVTVSS
VL: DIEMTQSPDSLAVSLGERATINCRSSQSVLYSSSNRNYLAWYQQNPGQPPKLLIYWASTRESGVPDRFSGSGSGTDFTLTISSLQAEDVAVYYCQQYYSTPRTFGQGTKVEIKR

- pAKT IC50 (BxPC-3) [11]: 1.4e-08 M (inferred)
- pAKT IC50 (DU145) [11]: 9.8e-09 M (inferred)
- pIGF-1R IC50 (BxPC-3) [11]: 2.4e-09 M (inferred)
- pIGF-1R IC50 (DU145) [11]: 9.1e-10 M (inferred)
B3: Anti-IGF-1R Ab# B (cixutumumab) (antibody, V domains shown)
VH: EVQLVQSGAEVKKPGSSVKVSCKASGGTFSSYAISWVRQAPGQGLEWMGGIIPIFGTANYAQKFQGRVTITADKSTSTAYMELSSLRSEDTAVYYCARAPLRFLEWSTQDHYYYYYMDVWGKGTTVTVSS
VL: SSELTQDPAVSVALGQTVRITCQGDSLRSYYATWYQQKPGQAPILVIYGENKRPSGIPDRFSGSSSGNTASLTITGAQAEDEADYYCKSRDGSGQHLVFGGGTKLTVLG
